Results published in article PMC9025429.

Target: N36 peptide (HIV-1)
Assay: ELISA; competition ELISA of 6-HB formation: plate coated with the 6-HB-specific mAb NC-1; inhibitor at 0.312-20 uM with N36 (final 1 uM) and biotin-C34 (final 2 uM) in PBS, 37 °C, 1 h; streptavidin-HRP detection

N36 peptide (HIV-1), sequence (P03375 546-581 limits assumed): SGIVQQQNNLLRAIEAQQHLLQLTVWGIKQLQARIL

Question: Which IC50 does the source give for C10-T1144 (peptide) here?
Answer: 2420 nM
